In publication PMC11853200:

Experiments:
[1] = target: MotS_(68–242)(D70A/E75A) (Bacillus subtilis); test: SEC; Superdex 75 10/300 GL, 20 mM Tris-HCl pH 8.0 with 300 mM NaCl, 0.6 mL/min; size markers ovalbumin (43 kDa) and IgG (158 kDa)
[2] = target: MotS_(68–242)(E75A) (Bacillus subtilis); test: as above
[3] = target: Bs-MotS_(68–242), periplasmic fragment of the stator B-subunit MotS from Bacillus subtilis (Bacillus subtilis); test: as above
[4] = target: Bs-MotS_(68–242), periplasmic fragment of the stator B-subunit MotS from Bacillus subtilis (Bacillus subtilis); test: SEC; Superdex 75 10/300 GL, 20 mM Tris-HCl pH 8.0 with 300 mM KCl (no Na+), 0.6 mL/min; size markers ovalbumin (43 kDa) and IgG (158 kDa)
[5] = target: Bs-MotS_(68–242), periplasmic fragment of the stator B-subunit MotS from Bacillus subtilis (Bacillus subtilis); test: crystal structure; protein purified in 300 mM NaCl; crystals from 20% PEG-8000, 0.1 M HEPES-NaOH pH 7.5, 293 K; soaked in 300 mM NaCl; 1.89 Å
[6] = target: Bs-MotS_(68–242), periplasmic fragment of the stator B-subunit MotS from Bacillus subtilis (Bacillus subtilis); test: crystal structure; protein purified in 300 mM KCl; crystals from 40% PEG-300, 0.1 M Na2HPO4/citric acid pH 4.2, 293 K; soaked in 40 mM NaCl/300 mM KCl; 1.90 Å
[7] = target: Bs-MotS_(68–242), periplasmic fragment of the stator B-subunit MotS from Bacillus subtilis (Bacillus subtilis); test: crystal structure; protein purified in 150 mM NaCl; crystals from 1.26 M ammonium sulfate, 0.1 M HEPES-NaOH pH 7.5, 293 K; solution containing 92 mM NaCl; 1.89 Å
[8] = target: MotS_(68–242)(D70A) (Bacillus subtilis); test: SEC; Superdex 75 10/300 GL, 20 mM Tris-HCl pH 8.0 with 300 mM NaCl, 0.6 mL/min; size markers ovalbumin (43 kDa) and IgG (158 kDa)

A stoichiometry N [1] of 2 was found for “MotS_(68–242)(D70A/E75A) (domain or fragment)” in this work.
A stoichiometry N [2] of 2 was found for “MotS_(68–242)(E75A) (domain or fragment)” in this work.
A stoichiometry N [3] of 2, a stoichiometry N [4] of 2 and a stoichiometry N [5] of 2 were found for “Bs-MotS_(68–242), periplasmic fragment of the stator B-subunit MotS from Bacillus subtilis (domain or fragment)” in this work. For the same substance, the stoichiometry N [6] was 2 and the stoichiometry N [7] was 2.
A stoichiometry N [8] of 2 was found for “MotS_(68–242)(D70A) (domain or fragment)” in this work.
